Results from patent publication US20230340114A1 (IMMUNE ONC THERAPEUTICS, published 2023).
Numbering of substitutions follows the chain as printed. Names may count otherwise. Read-outs that look alike come from different tables or passages of the source.

T1: recombinant cyno CD3e (Acro, cat #CDE-C5226) (cynomolgus monkey, UniProt Q95LI5 22-117)
T1 sequence (looked up): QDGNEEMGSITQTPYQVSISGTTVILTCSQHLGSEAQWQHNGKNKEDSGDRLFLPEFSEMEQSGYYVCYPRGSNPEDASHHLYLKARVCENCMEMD

B1: 4-3ab (bispecific antibody, human IgG1, kappa, L234A L235A)
heavy 1: not shown
heavy 2: EVQLVESGGGLVQPGGSLRLSCAASGFSLSSSYWISWVRQAPGKGLEWIGSIDSGSVGITYYATWVKGRFTISRDNSKNTLYLQMNSLRAEDTAVYYCARHGDNWALDLWGQGTLVTVSSASTKGPSVFPLAPSSKSTSGGTAALGCLVKDYFPEPVTVSWNSGALTSGVHTFPAVLQSSGLYSLSSVVTVPSSSLGTQTYICNVNHKPSNTKVDKRVEPKSCDKTHTCPPCPAPEAAGGPSVFLFPPKPKDTLMISRTPEVTCVVVDVSHEDPEVKFNWYVDGVEVHNAKTKPREEQYNSTYRVVSVLTVLHQDWLNGKEYKCKVSNKALPAPIEKTISKAKGQPREPQVCTLPPSREEMTKNQVSLSCAVKGFYPSDIAVEWESNGQPENNYKTTPPVLDSDGSFFLVSKLTVDKSRWQQGNVFSCSVMHEALHNHYTQKSLSLSPG
light 1: DIVMTQSPDSLAVSLGERATINCKSSQSLLNSRTRKNYLAWYQQKPGQPPKLLIYWASTRQSGVPDRFSGSGSGTDFTLTISSLQAEDVAVYYCTQSHTLRTFGGGTKVEIKPDIQNPDPAVYQLRDSKSSDKSVCLFTDFDSQTQVSQSKDSDVYITDKCVLDMRSMDFKSNSAVAWSQKSDFACANAFQNSIIPEDTFFPSPESS
light 2: DIQMTQSPSTLSASVGDRVTITCRASQSISSWLAWYQQKPGKAPKLLIYKASTLASGVPSRFSGSGSGTEFTLTISSLQPDDFATYYCQHGYIRGDLDNVFGGGTKVEIKRTVAAPSVFIFPPSDEQLKSGTASVVCLLNNFYPREAKVQWKVDNALQSGNSQESVTEQDSKDSTYSLSSTLTLSKADYEKHKVYACEVTHQGLSSPVTKSFNRGEC
notes: LILRB4 arm from H7K3m5, CD3 arm from WO2019057099; human IgG1 constant domains with knob-in-hole and effector-reducing mutations; also called first-generation LILRB4/CD3 bispecific antibody No. 1
B2: 4-3ab Q1E S91A (bispecific antibody, human IgG1, kappa, L234A L235A)
heavy 1: not shown
heavy 2: B1 heavy 2
light 1: B1 light 1 with S203A
light 2: B1 light 2
notes: Second-generation 1+1 bispecific, expressed in CHO-K1; also called Bispecific 2; 4-3ab (second generation)
B3: 4ab-3 (bispecific antibody, human IgG1, kappa, L234A L235A)
heavy 1: not shown
heavy 2: EVQLVESGGGLVQPGGSLRLSCAASGFSLSSSYWISWVRQAPGKGLEWIGSIDSGSVGITYYATWVKGRFTISRDNSKNTLYLQMNSLRAEDTAVYYCARHGDNWALDLWGQGTLVTVLEDLKNVFPPEVAVFEPSEAEISHTQKATLVCLATGFYPDHVELSWWVNGKEVHSGVCTDPQPLKEQPALQDSRYALSSRLRVSATFWQNPRNHFRCQVQFYGLSENDEWTQDRAKPVTQIVSAEAWGRASDKTHTCPPCPAPEAAGGPSVFLFPPKPKDTLMISRTPEVTCVVVDVSHEDPEVKFNWYVDGVEVHNAKTKPREEQYNSTYRVVSVLTVLHQDWLNGKEYKCKVSNKALPAPIEKTISKAKGQPREPQVCTLPPSREEMTKNQVSLSCAVKGFYPSDIAVEWESNGQPENNYKTTPPVLDSDGSFFLVSKLTVDKSRWQQGNVFSCSVMHEALHNHYTQKSLSLSPG
light 1: not shown
light 2: DIQMTQSPSTLSASVGDRVTITCRASQSISSWLAWYQQKPGKAPKLLIYKASTLASGVPSRFSGSGSGTEFTLTISSLQPDDFATYYCQHGYIRGDLDNVFGGGTKVEIKPDIQNPDPAVYQLRDSKSSDKSVCLFTDFDSQTQVSQSKDSDVYITDKCVLDMRSMDFKSNSAVAWSQKSDFACANAFQNSIIPEDTFFPSPESS
notes: also called first-generation LILRB4/CD3 bispecific antibody No. 2
B4: 4ab3-4ab S91A (bispecific antibody, human IgG1, kappa, L234A L235A)
heavy 1: not shown
heavy 2: B3 heavy 2
light 1: not shown
light 2: B3 light 2 with S201A
notes: Second-generation 2+1 bispecific, expressed in CHO-K1; also called Bispecific 1; 4ab3-4ab (second generation)

Experiments:
[1] = molecular target: recombinant CD3e-CD3d heterodimer protein (Acro Biosystems) (UniProt P07766 23-126; P04234 22-105); test: SPR (Biacore 8K), CD3e-CD3d immobilized on CM5 chip, bispecific as analyte, 1:1 model
Description: (§1) Binding affinities of first-generation bispecific antibodies to recombinant CD3e-CD3d heterodimer protein (Acro Biosystems) or LILRB4 recombinant protein (Sino Biological) were measured by surface plasmon resonance using a Biacore 8K instrument. Briefly, CD3e-CD3d or LILRB4 protein was immobilized on a CM5 chip with EDC and NHS according to standard protocols. […] The chip was regenerated using 10 mM glycine pH 1.5 as the regeneration buffer. The sensorgrams for reference channel Fc1 and buffer channel were subtracted from the test sensorgrams and the experimental data was fitted by 1:1 binding model.

[2] = molecular target: T2, recombinant human LILRB4 protein (Sino Biological, cat #16742-H08H) (human, UniProt Q8NHJ6 22-259); test: SPR (Biacore 8K), LILRB4 immobilized on CM5 chip, bispecific as analyte, 1:1 model
T2 construct: extracellular domain; also called LILRB4 recombinant protein (Sino Biological); Human LILRB4 ECD-his; not shown: his tag
Description: as §1

[3] = molecular target: T3, human LILRB4 expressed on cells (human, UniProt Q8NHJ6 22-448); test: cell-based or functional assay
[4] = molecular target: T3, human LILRB4 expressed on cells; test: FACS (Geo MFI) on normal human monocytes; panel assigned to monocytes by the order in legend paragraph 86
[5] = molecular target: recombinant human CD3e (Acro, cat #CDE-H5223) (human, UniProt P07766 23-126); test: BLI (Gator Bio), bispecific captured on anti-human Fc probe, human CD3e in solution, 1:1 global fit
Description: (§2) Binding affinities of second-generation bispecific antibodies were measured to recombinant human CD3e (Acro, cat #CDE-H5223), cyno CD3e (Acro, cat #CDE-C5226), human LILRB4 (Sino Biological, cat #16742-H08H), and cyno LILRB4 (Acro, cat #CDK-C5227) by Bio-Layer Interferometry (BLI) using an instrument from Gator Bio. Bispecific antibodies were captured using an immobilized anti-human Fc antibody (HFC) probe (Gator Bio, cat #PL168-160003) at 5 ug/mL load. […] Binding affinity constants were determined using a 1:1 fitting model (Global Fit) with Gator's data analysis software 1.6.1.1203, and the KD was calculated using the ratio Kdis/Kon.

[6] = molecular target: T1, recombinant cyno CD3e (Acro, cat …); test: BLI (Gator Bio), bispecific captured on anti-human Fc probe, cyno CD3e in solution, 1:1 global fit
Description: as §2

CD3 on Jurkat cells = molecular target: T4, CD3 on Jurkat cells (UniProt P07766 23-207); test: FACS on CD3+ Jurkat cells; estimated, curve did not reach a plateau
T4 construct: whole, on cells; on cells it stands in the whole CD3/TCR complex; also called CD3+ Jurkat cells

[7] = molecular target: T3, human LILRB4 expressed on cells; test: FACS on LILRB4+ THP-1 cells, Alexa 647 anti-human IgG Fc detection
Description: Binding of first and second generation bispecifics to CD3 or LILRB4 was measured by FACS on Jurkat cells or THP-1 cells. To measure binding of bispecifics to THP-1 cells, THP-1 cells were first incubated with human Fc blocker (BD Pharmingen Catalog No. 564220) at 10 ug per one million cells at room temperature for 10 minutes, followed by incubated with serially diluted bispecifics for 30 minutes on ice. Cells were washed twice with BSA staining buffer (BD Pharmingen Catalog No. 554657) and incubated with secondary Alexa 647 conjugated anti-human IgG Fc monoclonal antibody (Biolegend Catalog No. 409306) at 5 ug/mL for 30 minutes on ice. After final wash, 7-AAD was applied to exclude dead cells. To measure binding of first generation bispecifics to Jurkat cells, each bispecific was diluted in buffer including 1% BSA (5-fold dilution series, 400 nM highest concentration) and incubated with cells for 30 minutes at 4° C. Then bispecifics were stained with Alexa 647 anti-human IgG Fc at 5 ug/mL at 4° C. for 0.5 hours before analysis.

[8] = molecular target: T5, recombinant cyno LILRB4 (Acro, cat #CDK-C5227) (cynomolgus monkey); test: BLI (Gator Bio), bispecific captured on anti-human Fc probe, cyno LILRB4 in solution, 1:1 global fit
T5 construct: extracellular domain; also called cynomolgus monkey LILRB4 ECD-his recombinant protein (ACRObiosystems)
Description: as §2

[9] = molecular target: T3, human LILRB4 expressed on cells; test: cell-based or functional assay; remark: listed apart in the source
[10] = molecular target: T2, recombinant human LILRB4 protein (Sino …); test: BLI (Gator Bio), bispecific captured on anti-human Fc probe, human LILRB4 in solution, 1:1 global fit
Description: as §2

T4 sequence (P07766 23-207): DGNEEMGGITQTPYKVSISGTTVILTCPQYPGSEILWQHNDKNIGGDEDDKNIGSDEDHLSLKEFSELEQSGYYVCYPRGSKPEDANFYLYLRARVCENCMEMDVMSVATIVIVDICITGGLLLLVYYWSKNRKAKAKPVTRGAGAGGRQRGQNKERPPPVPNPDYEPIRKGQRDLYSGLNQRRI
Sequence of recombinant human CD3e (Acro, cat #CDE-H5223) (P07766 23-126 limits assumed): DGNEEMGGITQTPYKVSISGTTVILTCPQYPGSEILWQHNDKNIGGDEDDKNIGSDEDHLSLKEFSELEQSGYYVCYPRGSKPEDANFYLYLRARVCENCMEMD
Sequence of recombinant CD3e-CD3d heterodimer protein (Acro Biosystems) (P07766 23-126 limits assumed, chain 1 of 2): as the sequence (P07766 23-126 limits assumed) above
Sequence of recombinant CD3e-CD3d heterodimer protein (Acro Biosystems) (P04234 22-105 limits assumed, chain 2 of 2): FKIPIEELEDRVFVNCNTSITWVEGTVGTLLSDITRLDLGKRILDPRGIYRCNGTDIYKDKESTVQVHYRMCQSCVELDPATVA

Binder | Kd [1] [pM] | Kd [2] [pM] | Monocyte (max %), Donor 1 [3] [%] | Monocyte (max %), Donor 2 [3] [%] | Monocyte (max %), Donor 3 [3] [%] | Monocyte killing EC50, Donor 2 [3] [pM] | T-cell cytotoxicity, THP-1 (max %) [3] [%] | T-cell cytotoxicity, THP-1 EC50 [3] [pM] | EC50 (read off the curve) [4] [pM] | Kd [5] [pM] | Kd [6] [pM] | EC50 (CD3 on Jurkat cells) [pM] | EC50 [7] [pM] | Kd [8] [pM] | Autologous monocyte killing EC50 [9] [pM] | T-cell cytotoxicity, MV4-11 EC50 [9] [pM] | T-cell cytotoxicity, THP-1 EC50 [9] [pM] | Kd [10] [pM] | Monocyte killing EC50, Donor 3 [3] [pM]
B1 | 49600 | 190 | 43 | 41 | 13 | 9.4 | 98 | 0.36 | ~800 |  |  |  |  |  |  |  |  |  | 
B2 |  |  |  |  |  |  |  |  |  | 100 | 70 | ~854000 | 1300 | 9530 | 26 | 2.5 | 4.3 | 840 | 
B3 | 33400 | 270 | 43 | 34 | 32.5 | 29 | 98.6 | 0.084 | ~400 |  |  |  |  |  |  |  |  |  | 9.25
B4 |  |  |  |  |  |  |  |  |  | 70 | 260 | ~257000 | 700 | 8820 | 5.9 | 0.034 | 0.5 | 890 | 
